US7556938B1, “Nucleic acids encoding potassium channel interactors” (Millennium Pharmaceuticals, Inc., priority 1998, dated 2009)

Test system: rKv4.3
Test: Two-electrode voltage clamp of Kv4.3 currents in Xenopus oocytes co-injected with KChIP cRNA
Assay type: cell-based, rat
Conditions: for effect on Kv4.3 current: co-injected with Kv4.3 cRNA; for fold increase of inactivation time constant of Kv4.3: versus Kv4.3 alone
Method: Frogs underwent no more than two surgeries and surgeries were performed by well established techniques. Frogs were anesthetized with ice. Total cRNA (1-10 ng) was injected into stage IV Xenopus oocytes that were harvested the previous day. The Xenopus oocytes were incubated in ND96 containing (in mM) 96 NaCl, 2 KCl, 1.8 CaCl2, 1 MgCl2, 5 HEPES, pH 7.6, plus (Gentamycin 50 μg/ml) at 18° C. Xenopus oocytes were studied 3-7 days after injection. The two-electrode voltage-clamp recordings were performed in ND96 solution using a TURBO TEC 03 Clamp Amplifier (ALA Scientific Instruments, Westbury, N.Y.). Both electrodes were filled with 3 M KCl and had electrode resistances ranging from 0.2-1 MOhm. The current signals were filtered at 1000 Hz before transferred on a PC (Gateway, Calif.) using the PULSE software (HEKA, Germany).
To investigate whether the modulatory effects of these KChIPs are specific for Kv4 channels, KChIP1 was coexpressed with Kv1.4 and Kv2.1 in Xenopus oocytes. Xenopus oocytes were injected with 1-3 ng/oocyte of cRNA which was prepared using standard in vitro transcription techniques (Sambrook et al. 1989. Molecular Cloning: a laboratory manual, Cold Spring Harbor Press). Currents in Xenopus oocytes were measured with a two-electrode voltage clamp. […] As a final control for the KChIP effects and to verify that the KChIPs' effects on Kv4 currents are independent of expression system, the above kinetic analyses were repeated after expressing Kv4.3 and KChIP mRNAs in Xenopus oocytes. The effects KChIP1 on for Kv4.3 in the Xenopus oocyte system were strikingly similar to those on Kv4.2 in CHO cells (Table 1).

[1] = Kv4.3 co-expressed with the KChIP

rKv4.3, sequence (Q62897 1-487 limits assumed): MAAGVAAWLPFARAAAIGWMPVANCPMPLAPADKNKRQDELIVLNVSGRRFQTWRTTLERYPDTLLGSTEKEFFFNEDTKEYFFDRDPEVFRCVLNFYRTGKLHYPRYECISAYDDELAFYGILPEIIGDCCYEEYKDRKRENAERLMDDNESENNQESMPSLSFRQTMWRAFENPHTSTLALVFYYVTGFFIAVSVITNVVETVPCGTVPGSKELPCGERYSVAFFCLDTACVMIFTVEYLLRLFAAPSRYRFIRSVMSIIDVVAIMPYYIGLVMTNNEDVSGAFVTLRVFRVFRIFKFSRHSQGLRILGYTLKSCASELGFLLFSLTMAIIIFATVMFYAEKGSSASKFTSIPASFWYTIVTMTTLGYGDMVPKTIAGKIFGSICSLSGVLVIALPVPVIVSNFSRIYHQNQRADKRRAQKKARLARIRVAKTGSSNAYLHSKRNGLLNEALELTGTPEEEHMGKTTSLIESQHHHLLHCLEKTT

B1: KChIP4N3: KChIP4 splice variant KChIP4d (protein)
chain: MNVRRVESISAQLEEASSTGGFLYAQNSTKRSIKERLMKLLPCSAAKTSSPAIQNSVEDELEMATVRHRPEALELLEAQSKFTKKELQILYRGFKNECPSGVVNEETFKEIYSQFFPQGDSTTYAHFLFNAFDTDHNGAVSFEDFIKGLSILLRGTVQEKLNWAFNLYDINKDGYITKEEMLDIMKAIYDMMGKCTYPVLKEDAPRQHVETFFQKMDKNKDGVVTIDEFIESCQKDENIMRSMQLFENVI
Inactivation time constant (ms ± SEM) [1]: 85 ± 4 ms | Peak amplitude (μA ± SEM) [1]: 43 ± 4 μA | effect on Kv4.3 current: increased the peak amplitude of Kv4.3

B2: KChIP1l: KChIP1long splice variant of KChIP1 (protein)
chain: MGAVMGTFSSLQTKQRRPSKDIAWWYYQYQRDKIEDELEMTMVCHRPEGLEQLEAQTNFTKRELQVLYRGFKNECPSGVVNEDTFKQIYAQFFPHGDASTYAHYLFNAFDTTQTGSVKFEDFVTALSILLRGTVHEKLRWTFNLYDINKDGYINKEEMMDIVKAIYDMMGKYTYPVLKEDTPRQHVDVFFQKMDKNKDGIVTLDEFLESCQEDDNIMRSLQLFQNVM
Inactivation time constant (ms ± SEM) [1]: 100 ± 8 ms | Peak amplitude (μA ± SEM) [1]: 55±7 μA | fold increase of inactivation time constant of Kv4.3: ~2 fold

B3: KChIP1N: N-terminal splice variant of KChIP1 (protein)
chain: MWAEGESEGLQTLGIVVVVCSSLKLLHYLGLIDLSDDKIEDELEMTMVCHRPEGLEQLEAQTNFTKRELQVLYRGFKNECPSGVVNEDTFKQIYAQFFPHGDASTYAHYLFNAFDTTQTGSVKFEDFVTALSILLRGTVHEKLRWTFNLYDINKDGYINKEEMMDIVKAIYDMMGKYTYPVLKEDTPRQHVDVFFQKMDKNKDGIVTLDEFLESCQEDDNIMRSLQLFQNVM
Inactivation time constant (ms ± SEM) [1]: 1778 ± 136 ms | Peak amplitude (μA ± SEM) [1]: 18±3 μA | effect on Kv4.3 current: did not affect peak amplitude of Kv4.3 | fold increase of inactivation time constant of Kv4.3: 32 fold

B4: KChIP4N2: N-terminal splice variant of KChIP4 (protein)
chain: MNLEGLEMIAVLIVIVLFVKLLEQFGLIEAGLEDSVEDELEMATVRHRPEALELLEAQSKFTKKELQILYRGFKNECPSGVVNEETFKEIYSQFFPQGDSTTYAHFLFNAFDTDHNGAVSFEDFIKGLSILLRGTVQEKLNWAFNLYDINKDGYITKEEMLDIMKAIYDMMGKCTYPVLKEDAPRQHVETFFQKMDKNKDGVVTIDEFIESCQKDENIMRSMQLFENVI
Peak amplitude (μA ± SEM) (KChIP4N2 cRNA 1× (stock)): 0 ± 0 μA | Peak amplitude (μA ± SEM) (KChIP4N2 cRNA diluted 5×): 4 ± 1 μA | Inactivation time constant (ms ± SEM) (KChIP4N2 cRNA diluted 30×): 681 ± 28 ms | Peak amplitude (μA ± SEM) (KChIP4N2 cRNA diluted 30×): 25 ± 2 μA | Inactivation time constant (ms ± SEM) (KChIP4N2 cRNA diluted 120×): 193 ± 13 ms | Peak amplitude (μA ± SEM) (KChIP4N2 cRNA diluted 120×): 16 ± 3 μA | Inactivation time constant (ms ± SEM) (KChIP4N2 cRNA diluted 500×): 84 ± 5 ms | Peak amplitude (μA ± SEM) (KChIP4N2 cRNA diluted 500×): 9 ± 4 μA | effect on inactivation kinetics of Kv4.3 (high concentrations of KChIP4N2 (e.g. 5× dilution of stock)): converted the fast-inactivating Kv4.3 current into an almost non-inactivating current

B5: KChIP4N1: KChIP4 splice variant KChIP4a (protein)
chain: MLTLEWESEGLQTVGIVVIICASLKLLHLLGLIDFSEDSVEDELEMATVRHRPEALELLEAQSKFTKKELQILYRGFKNECPSGVVNEETFKEIYSQFFPQGDSTTYAHFLFNAFDTDHNGAVSFEDFIKGLSILLRGTVQEKLNWAFNLYDINKDGYITKEEMLDIMKAIYDMMGKCTYPVLKEDAPRQHVETFFQKMDKNKDGVVTIDEFIESCQKDENIMRSMQLFENVI
Inactivation time constant (ms ± SEM) [1]: 112 ± 7 ms | Peak amplitude (μA ± SEM) [1]: 6 ± 1 μA | effect on Kv4.3 current: statistically had no significant (ns) effect on Kv4.3 amplitude
